Laboratory results taken from patent US6406886.

What was measured:
Assay in all cases: cell-based or functional assay
[1] = molecular target: Rac1
[2] = molecular target: Ran
[3] = molecular target: human Ha-Ras (1st to 189th residues) (human) (UniProt P01112)
[4] = molecular target: human Rap1A (Glu63) (1st to 184th residues) (human) (UniProt P62834)
[5] = molecular target: human RhoA (1st to 193 residues) GST fusion protein (human) (UniProt P61586)
[6] = molecular target: yeast Rsr1 (1st to 272nd residues) (yeast) (UniProt P13856)
Chain of yeast Rsr1 (1st to 272nd residues) (yeast) (P13856 whole entry, form in doubt): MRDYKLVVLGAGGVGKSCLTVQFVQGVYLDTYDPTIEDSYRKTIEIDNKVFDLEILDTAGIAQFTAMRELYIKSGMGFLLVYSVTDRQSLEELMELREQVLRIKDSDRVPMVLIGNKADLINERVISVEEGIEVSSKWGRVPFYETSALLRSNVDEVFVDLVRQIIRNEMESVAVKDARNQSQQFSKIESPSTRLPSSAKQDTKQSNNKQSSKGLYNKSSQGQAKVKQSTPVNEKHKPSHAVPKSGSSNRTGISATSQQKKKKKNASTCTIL

Chain of human Ha-Ras (1st to 189th residues) (human) (P01112 whole entry, form in doubt): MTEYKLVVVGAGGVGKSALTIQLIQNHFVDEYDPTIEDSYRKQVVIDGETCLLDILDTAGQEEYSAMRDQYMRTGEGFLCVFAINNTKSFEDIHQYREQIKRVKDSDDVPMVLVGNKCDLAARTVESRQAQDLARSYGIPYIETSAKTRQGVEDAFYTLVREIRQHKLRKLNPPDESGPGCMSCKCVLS
Chain of human Rap1A (Glu63) (1st to 184th residues) (human) (P62834 whole entry, the tested form may be a part): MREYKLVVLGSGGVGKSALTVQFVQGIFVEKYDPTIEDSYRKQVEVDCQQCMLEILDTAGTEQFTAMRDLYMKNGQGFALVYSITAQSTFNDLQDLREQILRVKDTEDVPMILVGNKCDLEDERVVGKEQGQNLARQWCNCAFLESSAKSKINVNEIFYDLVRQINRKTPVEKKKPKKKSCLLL
Chain of human RhoA (1st to 193 residues) GST fusion protein (human) (P61586 whole entry, form in doubt, the tested form may be a part): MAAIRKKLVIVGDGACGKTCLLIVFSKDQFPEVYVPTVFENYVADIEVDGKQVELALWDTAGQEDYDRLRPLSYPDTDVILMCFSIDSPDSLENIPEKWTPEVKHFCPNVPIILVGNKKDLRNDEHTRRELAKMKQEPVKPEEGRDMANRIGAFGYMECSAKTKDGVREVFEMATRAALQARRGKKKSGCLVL

Stimulation (times) of GTPase activity [1]: 0 times
EC16 (µg/ml), activation of Ran GTPase [2]: 25 µg/mL
Stimulation (times) of GTPase activity [3]: 0.3 times
Stimulation (times) of GTPase activity [4]: 6 times
Stimulation (times) of GTPase activity [5]: 0.6 times
Stimulation (times) of GTPase activity [6]: 16 times
B1: Span-N/GST fusion protein (protein, not shown: a dimerising Fc or GST)
chain: MYNNQEAGAAFMQFLTLLGDVVRLKGFESYRAQLDTKTDSTGTHSLYTTYQDHEIMFHVSTMLPYTPNNQQQLLRKRHIGNDIVTIVFQEPGSKPFCPTTIRSHFQHVFLVVRAHAPCTPHTSYRVAVSRTQDTPAFGPALPEGGGPFAANADFRAFLLAKALNGEQAAGHARQFHAMATRTRQQYLQDL
